Experimental data as given in publication PMC8016950 (2021).

Target: full length human galectin-3 (hGal3), Cys173 mutated to Thr (human, UniProt P17931 1-250, Cys173 mutated to Thr)
Experiment: SPR

Chain of full length human galectin-3 (hGal3), Cys173 mutated to Thr (P17931 other isoform, or with tags, fused parts or gaps Cys173 mutated to Thr): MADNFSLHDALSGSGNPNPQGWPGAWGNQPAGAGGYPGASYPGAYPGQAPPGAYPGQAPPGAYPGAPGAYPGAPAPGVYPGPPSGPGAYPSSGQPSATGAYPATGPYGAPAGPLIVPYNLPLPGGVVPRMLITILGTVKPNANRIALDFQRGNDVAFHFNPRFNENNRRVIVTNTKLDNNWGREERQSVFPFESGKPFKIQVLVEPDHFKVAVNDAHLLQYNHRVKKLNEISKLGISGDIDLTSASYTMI

Kd: 0.31 nM
B1: GaletuzuFab-PAS200-Cys (Fab, V domains shown)
VH: QIQLVQSGAEVKKPGESLKISCKVSGYTFTDYAIHWVRQMPGKGLKWMGWINTYTGKPIYADDFKGQVIISLDKSINTAYLQWSSLKASDTAIYYCARGTMMASLDYWGQGTTVTVSS
VL: DVVMTQSPSSLSASVGDRVTITCKSSQSLVHSDGKTYLSWIQQKPGKAPKGLIYLVSKLDSGVPSRFSGSGSETDFTLTISSLQPEDSATYYCWQATHFPLTFGPGTKVDIR
